The source of these data is US20240279357A1 (THERINI BIO, published 2024).

For experiment [1], the target named is T1, P2 peptide comprising SEQ ID NO: 31 (human fibrin γ377-395) (human).
T1 construct: Bought (CPC Scientific 920712); also called human P2 peptide
T1 peptide: YSMKKTTMKIIPFNRLTIG
Put plainly: ELISA on coated P2 peptide. As for the experimental part:
(§1) The humanized antibodies affinity for fibrinogen, fibrin and P2 peptide were assessed by Enzyme-linked immunosorbent assays (ELISA)s (FIGS. 7-16). ELISAs for fibrinogen binding were performed using plasminogen-depleted human Fibrinogen (EMD/Calbiochem). […] IgG1-depleted Fibrinogen (FGN) in 20 mM HEPES/Saline buffer was added to each well of half of a 96-well Nunc Maxisorp™ ELISA plate. The ELISAs for fibrin binding were prepared by adding 50 mL of 20 mM HEPES/Saline buffer containing 14 mM CaCl₂, and 2 units thrombin to each well of the second half of the Nunc Maxisorp™ ELISA plate. 50 mL of 20 mg fibrinogen in 20 mM HEPES/Saline buffer were then added to a total volume of 100 mL. Plates were placed in a 37° C. incubator for 1 hour to allow fibrinogen to clot into fibrin and subsequently placed overnight into a plate dryer at 37° C. overnight. The ELISAs for P2 peptide were prepared by addition of […] of 30 mM P2 peptide in 20 mM HEPES/Saline buffer to each well of a 96-well Nunc Maxisorp™ ELISA plate. Plates were transferred to the plate dryer and dried overnight at 37° C. All ELISAs were preformed using Nunc MaxiSorp 96-well ELISA plates. Blocking was performed using 100 mL 5% BSA in DPBS are incubated at RT for 1 hour. Plates were washed 5× in DPBS containing 0.05% Tween-20 (EL406 was used for the addition of wash buffer only). 50 mL of primary antibodies was diluted in 0.5% BSA in DPBS, and the primary antibodies were added to the plates and incubated for 2 hours at 37° C. Plates were washed 5× in DPBS/Tween. 100 mL secondary antibodies were diluted in 0.5% BSA in DPBS. The secondary antibodies were then added to the plates and incubated for 1 hour at RT. Afterwards, plates were washed 5× in DPBS/Tween. 100 mL of TMB/E substrate solution was added, and the reaction was stopped after 5 minutes with 1N HCl.
In general terms: In an ELISA, binding on a coated surface is turned into a signal by an enzyme label.

For experiment [2], the target named is T2, human Fibrin (human fibrinogen clotted on the plate with thrombin and CaCl2) (human, UniProt P02671 36-629; P02675 45-491; P02679 27-437).
T2 construct: Made in the ELISA wells from the human fibrinogen by thrombin and CaCl2, 1 hour at 37 C, then dried
T2 sequence (looked up) 1: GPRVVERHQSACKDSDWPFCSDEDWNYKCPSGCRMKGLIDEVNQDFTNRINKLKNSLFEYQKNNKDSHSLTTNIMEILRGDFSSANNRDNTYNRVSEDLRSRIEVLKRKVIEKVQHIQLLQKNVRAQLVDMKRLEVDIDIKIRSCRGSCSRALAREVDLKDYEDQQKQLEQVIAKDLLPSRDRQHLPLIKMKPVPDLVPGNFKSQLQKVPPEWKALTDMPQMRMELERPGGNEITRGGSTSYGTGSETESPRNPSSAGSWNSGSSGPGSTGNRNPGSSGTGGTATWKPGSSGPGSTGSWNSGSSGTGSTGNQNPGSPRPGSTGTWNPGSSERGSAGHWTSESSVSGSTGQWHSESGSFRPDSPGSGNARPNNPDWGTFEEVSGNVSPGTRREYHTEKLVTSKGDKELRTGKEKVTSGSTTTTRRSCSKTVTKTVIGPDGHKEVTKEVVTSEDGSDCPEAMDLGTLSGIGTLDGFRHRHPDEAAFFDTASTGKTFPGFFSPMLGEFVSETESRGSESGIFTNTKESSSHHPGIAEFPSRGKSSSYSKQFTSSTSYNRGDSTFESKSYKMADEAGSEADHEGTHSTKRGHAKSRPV
T2 sequence (looked up) 2: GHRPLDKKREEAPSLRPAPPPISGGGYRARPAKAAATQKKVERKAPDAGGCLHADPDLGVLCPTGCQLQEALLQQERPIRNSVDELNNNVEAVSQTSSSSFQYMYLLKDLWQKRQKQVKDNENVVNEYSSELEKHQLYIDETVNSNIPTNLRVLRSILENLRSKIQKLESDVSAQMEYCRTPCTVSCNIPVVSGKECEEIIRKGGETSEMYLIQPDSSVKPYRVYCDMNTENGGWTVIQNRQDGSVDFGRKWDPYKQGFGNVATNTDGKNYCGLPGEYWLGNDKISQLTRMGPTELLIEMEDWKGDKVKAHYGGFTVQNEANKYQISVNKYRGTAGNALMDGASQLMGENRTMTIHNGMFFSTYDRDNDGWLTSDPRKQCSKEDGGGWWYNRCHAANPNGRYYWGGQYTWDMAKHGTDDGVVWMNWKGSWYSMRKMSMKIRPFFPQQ
T2 sequence (looked up) 3: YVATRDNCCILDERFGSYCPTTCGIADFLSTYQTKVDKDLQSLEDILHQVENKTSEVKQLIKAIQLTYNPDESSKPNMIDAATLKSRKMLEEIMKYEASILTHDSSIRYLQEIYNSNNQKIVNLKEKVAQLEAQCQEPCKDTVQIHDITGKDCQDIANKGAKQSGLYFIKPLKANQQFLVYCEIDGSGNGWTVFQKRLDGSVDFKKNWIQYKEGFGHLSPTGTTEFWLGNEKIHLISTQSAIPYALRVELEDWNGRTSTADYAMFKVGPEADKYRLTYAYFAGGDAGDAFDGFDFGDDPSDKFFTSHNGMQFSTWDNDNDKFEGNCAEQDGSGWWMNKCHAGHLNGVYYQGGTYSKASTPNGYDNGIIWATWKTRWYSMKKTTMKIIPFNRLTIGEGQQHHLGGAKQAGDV
Put plainly: ELISA on human fibrin formed on the plate. As for the experimental part: as §1

Experiment [3] concerns the target T3, plasminogen-depleted human Fibrinogen (EMD/Calbiochem) (human, UniProt P02671 20-629; P02675 31-491; P02679 27-437, limits assumed).
T3 construct: Bought protein, IgG-depleted, coated on ELISA plates; also called FGN
T3 sequence (looked up) 1: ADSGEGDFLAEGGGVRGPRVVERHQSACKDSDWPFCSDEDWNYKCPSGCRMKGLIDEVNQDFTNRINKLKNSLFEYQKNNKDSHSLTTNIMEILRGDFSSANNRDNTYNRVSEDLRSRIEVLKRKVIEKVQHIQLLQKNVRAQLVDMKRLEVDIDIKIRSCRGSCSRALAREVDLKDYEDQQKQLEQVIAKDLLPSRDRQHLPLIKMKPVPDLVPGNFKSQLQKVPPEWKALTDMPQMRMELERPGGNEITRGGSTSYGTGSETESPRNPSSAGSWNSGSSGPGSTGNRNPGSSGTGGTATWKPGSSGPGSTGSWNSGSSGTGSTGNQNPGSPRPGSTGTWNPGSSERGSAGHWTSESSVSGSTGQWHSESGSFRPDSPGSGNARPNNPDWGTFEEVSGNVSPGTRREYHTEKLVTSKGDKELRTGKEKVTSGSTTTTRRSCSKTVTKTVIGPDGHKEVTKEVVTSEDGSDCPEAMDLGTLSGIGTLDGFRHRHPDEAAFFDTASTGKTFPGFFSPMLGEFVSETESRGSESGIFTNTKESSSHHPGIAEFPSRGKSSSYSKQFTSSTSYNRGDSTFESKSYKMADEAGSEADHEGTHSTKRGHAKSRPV
T3 sequence (looked up) 2: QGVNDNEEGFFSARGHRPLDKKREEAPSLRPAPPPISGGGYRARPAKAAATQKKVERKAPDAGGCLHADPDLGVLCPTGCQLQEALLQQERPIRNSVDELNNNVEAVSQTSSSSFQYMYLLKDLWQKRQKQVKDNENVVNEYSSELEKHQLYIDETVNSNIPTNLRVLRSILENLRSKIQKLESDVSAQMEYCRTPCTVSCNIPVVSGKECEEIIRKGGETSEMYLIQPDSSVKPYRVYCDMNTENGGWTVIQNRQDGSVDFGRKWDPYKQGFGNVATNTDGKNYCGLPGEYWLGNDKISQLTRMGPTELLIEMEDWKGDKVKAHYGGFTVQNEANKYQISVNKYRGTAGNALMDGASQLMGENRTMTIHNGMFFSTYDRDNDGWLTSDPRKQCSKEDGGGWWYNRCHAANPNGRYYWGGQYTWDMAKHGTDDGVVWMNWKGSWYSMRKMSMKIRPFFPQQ
T3 sequence (looked up) 3: T2 sequence (looked up) 3
Put plainly: ELISA on coated human fibrinogen; curve did not reach saturation. As for the experimental part:
as §1

Experiment [4] concerns the target T1, P2 peptide comprising SEQ ID NO: 31 …. The experiment is described as follows: ELISA on plate-coated human P2 peptide, antibody titrated, A450. As for the experimental part: as §1, with “50 mL of primary antibodies was diluted in 0.5% BSA in DPBS, and the primary antibodies were added to the plates and incubated for 2 hours at 37° C. Plates were washed 5× in DPBS/Tween. 100 mL secondary antibodies were diluted in 0.5% BSA in DPBS. The secondary antibodies were then added to the plates and incubated for 1 hour at RT. Afterwards, plates were washed 5× in DPBS/Tween. 100 mL of TMB/E substrate solution was added, and the reaction was stopped after 5 minutes with 1N HCl.” left out

Experiment [5] concerns the target T2, human Fibrin (human fibrinogen clotted …). Put plainly: ELISA on plate-coated human fibrin (fibrinogen clotted in the well with thrombin/CaCl2), antibody titrated, A450. As for the experimental part: as §1, with “50 mL of primary antibodies was diluted in 0.5% BSA in DPBS, and the primary antibodies were added to the plates and incubated for 2 hours at 37° C. Plates were washed 5× in DPBS/Tween. 100 mL secondary antibodies were diluted in 0.5% BSA in DPBS. The secondary antibodies were then added to the plates and incubated for 1 hour at RT. Afterwards, plates were washed 5× in DPBS/Tween. 100 mL of TMB/E substrate solution was added, and the reaction was stopped after 5 minutes with 1N HCl.” left out

B1: mouse monoclonal anti-fibrin antibody 5B8 (antibody, V domains shown)
VH: QVQLQQPGAELVRPGTSVKLSCKASGYTFTSYWIHWVKQRPGQGLEWIGLIDPSDSYTNYNQKFRGKATLTVDTSSSTAYMQLSSLTSEDSAVYYCASSDPTGCWGQGTTLTVSP
VL: DIVMTQAAFSNPITLGTSASMSCRSSKSLLHSSGITYLSWYLQKPGQSPQLLIYQMSNLASGVPDRFSSSGSGTDFTLRISRVEAEDVGVYYCAQNLELPLTFGAGTKLELK
notes: also called murine 5B8; Murine 5B8 (from client)
Turning to B1, the EC50 – broadly, the concentration that produces a half-maximal response – was around 29 nM in experiment [1], around 82.6 nM in experiment [2] and around 1600 nM in experiment [3]. Moreover, the EC50 (read off the curve) (commonly the concentration at which the effect is half-maximal) was around 30 nM in experiment [4] and around 80 nM in experiment [5].
